Experimental findings from US20090131317A1, “COMPOUNDS AND PEPTIDES THAT BIND THE TRAIL RECEPTOR” (AFFYMAX, INC., priority 2007, published 2009) are described below.

Numbered stars: 1 amine (or outer) side, 2 acyl side, 3 side chain; on linkers, the order of the positions; unused ones are H or OH. Bridge positions count the residues as written; N and C are the ends. Peptide text beside a SMILES is read from it. I, II: the chains in the order shown. TSAT = Tris-succinimidyl aminotriacetate linker; X1 = O=C(CN(CC(=O)[*:2])CC(=O)[*:3])[*:1]; Diglycolyl = O=C(COCC(=O)[*:2])[*:1]; DIG = diglycolic acid linker

By EC50 is commonly meant the concentration needed to bring the measured effect to its halfway point. A high value points to a less potent agent. One may read the IC50 as the concentration needed to halve the response being measured.

One test relates to Jurkat cells. The class given is cell-based. On the procedure: The apoptotic activity of test peptides is measured using a Jurkat proliferation assay.
Jurkat cells are obtained from the American Type Culture Collection (ATCC, Manassas, Va.) and are maintained in RPMI-1640 medium supplemented with 10% FBS, 100 U/mL penicillin, and 100 […] (Growth Medium). […] Cells are resuspended at a density of 1×10^6 cells/mL in Growth Medium, and 50 μl cells is added to each well of the assay plates. The plates are incubated in a 37° C., 5% CO2 incubator for 24-48 hours. Proliferation is assessed by adding 10 μL of MTT stock solution (ATCC, Manassas, Va.) to the wells. The plates are incubated in a 37° C., 5% CO2 incubator for another 2-4 hours, followed by the addition of 100 μL of 20% SDS with 0.01 N HCl. After incubation overnight in a 37° C., 5% CO2 incubator, the plates are quantified by reading the optical density at a wavelength of 595 nm (OD595) in a SpectraMax® M5 microplate reader (Molecular Devices, Sunnyvale, Calif.). The data are analyzed using GraphPad Prism® software (La Jolla, Calif.) to calculate IC50 values from a 4-parameter logistic equation.

The next test relates to HCT-116 cells. It is filed as cell-based. As to the method: The apoptotic activity of test peptides is measured using an HCT-116 proliferation assay. The HCT-116 assay is used to measure the activity of TRAIL R2 agonist peptides using the colon carcinoma cell line HCT-116 (ATCC, Manassas, Va.).
In more detail, a peptide homotrimer based on the peptide monomer sequence of SEQ ID NO: 19 (See, FIG. 8B) is tested for functional activity using the HCT-116 proliferation assay. HCT-116 cells are incubated for one to two days in the presence of serially diluted peptide dimers or peptide trimers. […]
Cell viability is measured using an MTT colorimetric viability assay, a colorimetric assay that analyzes the number of viable cells by measuring the ability of mitochondrial dehydrogenase enzyme in the viable cells to cleave tetrazolium salts added to the culture medium [See, Mosmann (1983) J. Immunol. […] Using this assay, cell proliferation is assessed after 24-48 hours by adding 10 μL of MTT stock solution (ATCC, Manassas, Va.) to the wells. […] After incubation overnight in a 37° C., 5% CO2 incubator, the plates are quantified by reading the optical density at 595 nm (OD595) in a SpectraMax M5 microplate reader (Molecular Devices, Sunnyvale, Calif.). The data are analyzed using GraphPad® Prism software (La Jolla, Calif.) to calculate IC50 values from a 4-parameter logistic equation.

In test [1] the target is TRAIL R2 receptor on HCT-116 or Jurkat cells (UniProt O14763 56-440, limits assumed). Put plainly: cell-based or functional assay.
Test [2] addresses T1, Recombinant human TRAIL R2-Fc fusion protein (R&D Systems) (human, UniProt O14763 52-182, limits assumed).
T1 construct: Bought from R&D Systems; held on protein A-coated acceptor beads in the AlphaQuest/AlphaScreen assay; also called TRAIL R2 receptor; R2 receptor; not shown: Fc part of the bought fusion protein
Put plainly: AlphaQuest competition: displaces biotinylated TRAIL ligand from human TRAIL R2-Fc. As to the method:
The plates are sealed with adhesive sealing film and covered with aluminum foil, centrifuged at 600 rpm for 30 seconds and incubated overnight in the dark. […] The raw data are analyzed using GraphPad Prism® software (La Jolla, Calif.) to calculate IC₅₀ values from a 4-parameter logistic equation.
The binding affinity of the antagonist peptides and peptide-based compounds of the invention are measured according to the AlphaQuest® Competitive Binding Assay, described above, in Example 1.1. The IC₅₀ values are determined for each test peptide or test compound. The compounds tested are homodimers and homotrimers of peptides comprising the amino sequence set forth in SEQ ID NOs: 33 and 34, linked by DIG or TSAT, respectively.

For the molecule `CC(=O)N[C@@H](Cc1c[nH]c2ccccc12)C(=O)N[C@@H](CC(=O)O)C(=O)N[C@H]1CSSC[C@@H](C(=O)N[C@H](C(=O)N[C@@H](CCCNC(=N)N)C(=O)N[C@@H](CC(C)C)C(=O)N[C@@H](CCC(=O)O)C(=O)N[C@@H](CCCCNC(=O)COCC(=O)NCCCC[C@H](NC(=O)[C@H](CCC(=O)O)NC(=O)[C@H](CC(C)C)NC(=O)[C@H](CCCNC(=N)N)NC(=O)[C@@H](NC(=O)[C@@H]2CSSC[C@H](NC(=O)[C@H](CC(=O)O)NC(=O)[C@H](Cc3c[nH]c4ccccc34)NC(C)=O)C(=O)N[C@@H](CC(C)C)C(=O)N[C@@H](C(C)C)C(=O)N[C@@H](CC(=O)O)C(=O)N[C@@H](CCCNC(=N)N)C(=O)N3CCC[C@H]3C(=O)NCC(=O)N[C@@H](CCCNC(=N)N)C(=O)N[C@@H](CCCNC(=N)N)C(=O)N[C@@H](CCC(N)=O)C(=O)N2)C(C)C)C(N)=O)C(N)=O)C(C)C)NC(=O)[C@H](CCC(N)=O)NC(=O)[C@H](CCCNC(=N)N)NC(=O)[C@H](CCCNC(=N)N)NC(=O)CNC(=O)[C@@H]2CCCN2C(=O)[C@H](CCCNC(=N)N)NC(=O)[C@H](CC(=O)O)NC(=O)[C@H](C(C)C)NC(=O)[C@H](CC(C)C)NC1=O` [SEQ ID NO: 29 homodimer] (I: Ac-WDCLVDRPGRRQCVRLEK-NH2 / II: Ac-WDCLVDRPGRRQCVRLEK-NH2; disulfide I:3-I:13, II:3-II:13 (inferred); linker I:18-II:18 via Diglycolyl (inferred)), in the test on Jurkat cells, the EC50 lay in the range of 1300 to 1660 nM.

`CC(=O)N[C@@H](Cc1c[nH]c2ccccc12)C(=O)N[C@@H](CC(=O)O)C(=O)N[C@H]1CSSC[C@@H](C(=O)N[C@H](C(=O)N[C@@H](CCCNC(=N)N)C(=O)N[C@@H](CC(C)C)C(=O)N[C@@H](CCC(=O)O)C(=O)N[C@@H](CCCNC(=N)N)C(=O)N[C@@H](CCCCNC(=O)COCC(=O)NCCCC[C@H](NC(=O)[C@H](CCCNC(=N)N)NC(=O)[C@H](CCC(=O)O)NC(=O)[C@H](CC(C)C)NC(=O)[C@H](CCCNC(=N)N)NC(=O)[C@@H](NC(=O)[C@@H]2CSSC[C@H](NC(=O)[C@H](CC(=O)O)NC(=O)[C@H](Cc3c[nH]c4ccccc34)NC(C)=O)C(=O)N[C@@H](CC(C)C)C(=O)N[C@@H](C(C)C)C(=O)N[C@@H](CC(=O)O)C(=O)N[C@@H](CCCNC(=N)N)C(=O)N3CCC[C@H]3C(=O)NCC(=O)N[C@@H](CCCNC(=N)N)C(=O)N[C@@H](CCCNC(=N)N)C(=O)N[C@@H](CCC(N)=O)C(=O)N2)C(C)C)C(N)=O)C(N)=O)C(C)C)NC(=O)[C@H](CCC(N)=O)NC(=O)[C@H](CCCNC(=N)N)NC(=O)[C@H](CCCNC(=N)N)NC(=O)CNC(=O)[C@@H]2CCCN2C(=O)[C@H](CCCNC(=N)N)NC(=O)[C@H](CC(=O)O)NC(=O)[C@H](C(C)C)NC(=O)[C@H](CC(C)C)NC1=O` [SEQ ID NO: 30 homodimer] (I: Ac-WDCLVDRPGRRQCVRLERK-NH2 / II: Ac-WDCLVDRPGRRQCVRLERK-NH2; disulfide I:3-I:13, II:3-II:13 (inferred); linker I:19-II:19 via Diglycolyl (inferred)) had an EC50 with Jurkat cells of 611 to 1090 nM.

For `CC(=O)N[C@@H](Cc1c[nH]c2ccccc12)C(=O)N[C@@H](CC(=O)O)C(=O)N[C@H]1CSSC[C@@H](C(=O)N[C@H](C(=O)N[C@@H](CCCCNC(=O)COCC(=O)NCCCC[C@H](NC(=O)[C@@H](NC(=O)[C@@H]2CSSC[C@H](NC(=O)[C@H](CC(=O)O)NC(=O)[C@H](Cc3c[nH]c4ccccc34)NC(C)=O)C(=O)N[C@@H](CC(C)C)C(=O)N[C@@H](C(C)C)C(=O)N[C@@H](CC(=O)O)C(=O)N[C@@H](CCCNC(=N)N)C(=O)N3CCC[C@H]3C(=O)NCC(=O)N[C@@H](CCCNC(=N)N)C(=O)N[C@@H](CCCNC(=N)N)C(=O)N[C@@H](CCC(N)=O)C(=O)N2)C(C)C)C(=O)N[C@@H](CC(C)C)C(=O)N[C@@H](CCC(=O)O)C(=O)N[C@@H](CCCNC(=N)N)C(N)=O)C(=O)N[C@@H](CC(C)C)C(=O)N[C@@H](CCC(=O)O)C(=O)N[C@@H](CCCNC(=N)N)C(N)=O)C(C)C)NC(=O)[C@H](CCC(N)=O)NC(=O)[C@H](CCCNC(=N)N)NC(=O)[C@H](CCCNC(=N)N)NC(=O)CNC(=O)[C@@H]2CCCN2C(=O)[C@H](CCCNC(=N)N)NC(=O)[C@H](CC(=O)O)NC(=O)[C@H](C(C)C)NC(=O)[C@H](CC(C)C)NC1=O` [SEQ ID NO: 31 homodimer] (I: Ac-WDCLVDRPGRRQCVKLER-NH2 / II: Ac-WDCLVDRPGRRQCVKLER-NH2; disulfide I:3-I:13, II:3-II:13 (inferred); linker I:15-II:15 via Diglycolyl (inferred)), the EC50 with Jurkat cells is more than 22000 nM. In the test on HCT-116 cells, “I: Ac-WDCLDNRIGRRQCVKL-NH2 / II: Ac-WDCLDNRIGRRQCVKL-NH2 / III: Ac-WDCLDNRIGRRQCVKL-NH2 (disulfide I:3-I:13, II:3-II:13, III:3-III:13 (inferred); linker I:15-II:15-III:15 via X1 (inferred)) [SEQ ID NO: 19 homotrimer]” gave an EC50 of approximately 480 nM. Regarding Ac-WDCLDNRIGK(DIG)RQCVR-NH2 (disulfide 3-13 (inferred); also: homodimer joined by DIG linker at Lys10, also called 33 Dimer DIG) [peptide homodimer based on the monomer amino acid sequence of SEQ ID NO: 33, DIG linker], the “EC50, Jurkat antagonist assay (inhibition of TRAIL ligand-induced apoptosis)” value in test [1] was 5.44 µM. In test [2], the IC50 was found to be 0.111 nM. In the case of Ac-WDCLDNRIGK(TSAT)RQCVRA-NH2 (disulfide 3-13 (inferred); also: homotrimer joined by TSAT linker at Lys10) [peptide homotrimer based on the monomer amino acid sequence of SEQ ID NO: 34, TSAT linker], in test [1], the “EC50, Jurkat antagonist assay (inhibition of TRAIL ligand-induced apoptosis)” value came out at 0.323 µM. For the same molecule, in test [2], the IC50 amounted to 0.038 nM.

Regarding Ac-WDCLDNRIGK(DIG)RQCVRA-NH2 (disulfide 3-13 (inferred); also: homodimer joined by DIG linker at Lys10, also called 34 Dimer DIG) [peptide homodimer based on the monomer amino acid sequence of SEQ ID NO: 34, DIG linker], the “EC50, Jurkat antagonist assay (inhibition of TRAIL ligand-induced apoptosis)” value in test [1] came to 1.58 µM. Besides, the IC50 in test [2] worked out at 0.06 nM.
